Assay results reported in US20160264649A1.

How the values were obtained:
Experiment in all cases: cell-based or functional assay
[1] = target: HIV-1 92RW020 Env (HIV-1)
[2] = target: HIV-1 92UG024 Env (HIV-1)
[3] = target: HIV-1 93IN905 Env (HIV-1)
[4] = target: HIV-1 93IN905 Env on pseudovirus (HIV-1)
[5] = target: HIV-1 93MW959 Env on pseudovirus (HIV-1)
[6] = target: HIV-1 93UG077 Env (HIV-1)
[7] = target: HIV-1 97ZA012 Env on pseudovirus (HIV-1)
HIV-1 APV-6 Env (HIV-1) = target: HIV-1 APV-6 Env (HIV-1)
HIV-1 CMU02 Env (HIV-1) = target: HIV-1 CMU02 Env (HIV-1)
[8] = target: HIV-1 IAVI-C18 Env (HIV-1)
[9] = target: HIV-1 JRCSF Env on pseudovirus (HIV-1) (UniProt P20871)
[10] = target: HIV-1 LAVI_C3 Env on pseudovirus (HIV-1)
[11] = target: HIV-1 MGRM-AE-005 Env (HIV-1)
[12] = target: HIV-1 MGRM-AE-007 Env (HIV-1)
[13] = target: HIV-1 MGRM-AE-008 Env (HIV-1)
[14] = target: HIV-1 MGRM-AG-002 Env (HIV-1)
[15] = target: HIV-1 MGRM-AG-005 Env (HIV-1)
[16] = target: HIV-1 MGRM-AG-009 Env (HIV-1)
[17] = target: HIV-1 MGRM-AG-011 Env (HIV-1)
[18] = target: HIV-1 MGRM-C-004 Env on pseudovirus (HIV-1)
[19] = target: HIV-1 MGRM-C-005 Env on pseudovirus (HIV-1)
[20] = target: HIV-1 MGRM-C-006 Env on pseudovirus (HIV-1)
[21] = target: HIV-1 MGRM-C-007 Env on pseudovirus (HIV-1)
[22] = target: HIV-1 MGRM-C-010 Env on pseudovirus (HIV-1)
[23] = target: HIV-1 MGRM-C-012 Env on pseudovirus (HIV-1)
[24] = target: HIV-1 MGRM-C-015 Env on pseudovirus (HIV-1)
[25] = target: HIV-1 MGRM-C-022 Env on pseudovirus (HIV-1)
[26] = target: HIV-1 MGRM-C-024 Env on pseudovirus (HIV-1)
[27] = target: HIV-1 MGRM-Chronic-B-010 Env on pseudovirus (HIV-1)
[28] = target: HIV-1 MGRM-Chronic-B-012 Env on pseudovirus (HIV-1)
[29] = target: HIV-1 MGRM-Chronic-B-018 Env on pseudovirus (HIV-1)
[30] = target: HIV-1 MGRM-Chronic-B-020 Env on pseudovirus (HIV-1)
[31] = target: HIV-1 MGRM-Chronic-B-024 Env on pseudovirus (HIV-1)
[32] = target: HIV-1 MGRM-D-001 Env (HIV-1)
[33] = target: HIV-1 MGRM-D-004 Env (HIV-1)
[34] = target: HIV-1 MGRM-D-012 Env (HIV-1)
[35] = target: HIV-1 MGRM-D-019 Env (HIV-1)
[36] = target: HIV-1 MGRM-D-026 Env (HIV-1)
[37] = target: HIV-1 MGRM-F1-008 Env (HIV-1)
[38] = target: HIV-1 MGRM-F1-010 Env (HIV-1)
[39] = target: HIV-1 MGRM-F1-017 Env (HIV-1)
[40] = target: HIV-1 MGRM-F1-020 Env (HIV-1)
[41] = target: HIV-1 MGRM-F1-021 Env (HIV-1)
[42] = target: HIV-1 MGRM-F1-023 Env (HIV-1)
[43] = target: HIV-1 MGRM-G-001 Env (HIV-1)
[44] = target: HIV-1 MGRM-G-004 Env (HIV-1)
[45] = target: HIV-1 MGRM-G-016 Env (HIV-1)
[46] = target: HIV-1 PVO.4 (Acute) Env on pseudovirus (HIV-1)
[47] = target: HIV-1 SF162 Env on pseudovirus (HIV-1) (UniProt P19550)
[48] = target: HIV-1 TRJ0.58 (Acute) Env on pseudovirus (HIV-1)

Chain of 1443_C16 (PG16) (TCN-116) (antibody) (VH): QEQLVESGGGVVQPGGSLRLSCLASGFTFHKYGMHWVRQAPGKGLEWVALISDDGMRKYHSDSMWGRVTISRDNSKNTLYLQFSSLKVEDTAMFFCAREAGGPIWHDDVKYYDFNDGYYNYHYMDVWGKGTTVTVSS
Chain of 1443_C16 (PG16) (TCN-116) (antibody) (VL): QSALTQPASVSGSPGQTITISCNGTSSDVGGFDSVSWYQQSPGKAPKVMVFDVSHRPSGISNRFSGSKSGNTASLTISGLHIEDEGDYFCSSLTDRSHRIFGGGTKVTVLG

1443_C16 (PG16) (TCN-116) (antibody)
IC50, TZM-bl pseudovirus neutralization [1]: 0.09 µg/mL
neutralization IC50 [1]: 0.004 µg/mL
neutralization IC90 [1]: > 50 µg/mL
IC50 (µg/ml), pseudovirus neutralization [2]: 24 µg/mL
neutralization IC50 [2]: > 50 µg/mL
neutralization IC90 [2]: > 50 µg/mL
neutralization IC50 [3]: 0.102 µg/mL
neutralization IC90 [3]: > 50 µg/mL
IC50 [4]: 0.25 µg/mL
IC50 [5]: 0.007 µg/mL
neutralization IC50 [6]: > 50 µg/mL
neutralization IC90 [6]: > 50 µg/mL
IC50 [7]: 2.55 µg/mL
neutralization IC50 (HIV-1 APV-6 Env (HIV-1)): 0.08 µg/mL
neutralization IC90 (HIV-1 APV-6 Env (HIV-1)): 44.3 µg/mL
IC50 (µg/ml), pseudovirus neutralization (HIV-1 CMU02 Env (HIV-1)): 43.6 µg/mL
neutralization IC50 (HIV-1 CMU02 Env (HIV-1)): > 50 µg/mL
neutralization IC90 (HIV-1 CMU02 Env (HIV-1)): > 50 µg/mL
neutralization IC50 [8]: 0.0067 µg/mL
neutralization IC90 [8]: 0.207 µg/mL
IC50 [9]: 0.001 µg/mL
IC50 [10]: 9.55 µg/mL
IC50 (µg/ml), pseudovirus neutralization [11]: 0.02 µg/mL
IC50 (µg/ml), pseudovirus neutralization [12]: 0.04 µg/mL
IC50 (µg/ml), pseudovirus neutralization [13]: 3.25 µg/mL
IC50 (µg/ml), pseudovirus neutralization [14]: 0.03 µg/mL
IC50 (µg/ml), pseudovirus neutralization [15]: > 50 µg/mL
IC50 (µg/ml), pseudovirus neutralization [16]: > 50 µg/mL
IC50 (µg/ml), pseudovirus neutralization [17]: 0.002 µg/mL
IC50 [18]: 5.09 µg/mL
IC50 [19]: 2.55 µg/mL
IC50 [20]: 2.62 µg/mL
IC50 [21]: 0.05 µg/mL
IC50 [22]: > 50 µg/mL
IC50 [23]: 0.48 µg/mL
IC50 [24]: 0.26 µg/mL
IC50 [25]: 0.25 µg/mL
IC50 [26]: 0.04 µg/mL
IC50 [27]: 0.01 µg/mL
IC50 [28]: 3.74 µg/mL
IC50 [29]: 0.7 µg/mL
IC50 [30]: > 50 µg/mL
IC50 [31]: 0.01 µg/mL
IC50 (µg/ml), pseudovirus neutralization [32]: > 50 µg/mL
IC50 (µg/ml), pseudovirus neutralization [33]: 0.01 µg/mL
IC50 (µg/ml), pseudovirus neutralization [34]: 0.35 µg/mL
IC50 (µg/ml), pseudovirus neutralization [35]: 0.01 µg/mL
IC50 (µg/ml), pseudovirus neutralization [36]: > 50 µg/mL
IC50 (pseudovirus neutralization) [37]: > 50 µg/mL
IC50 (pseudovirus neutralization) [38]: 0.01 µg/mL
IC50 (pseudovirus neutralization) [39]: > 50 µg/mL
IC50 (pseudovirus neutralization) [40]: 4.35 µg/mL
IC50 (pseudovirus neutralization) [41]: > 50 µg/mL
IC50 (pseudovirus neutralization) [42]: > 50 µg/mL
IC50 (µg/ml), pseudovirus neutralization [43]: 0.15 µg/mL
IC50 (µg/ml), pseudovirus neutralization [44]: > 50 µg/mL
IC50 (µg/ml), pseudovirus neutralization [45]: 11.3 µg/mL
IC50 [46]: 5.43 µg/mL
IC50 [47]: > 50 µg/mL
IC50 [48]: 1.16 µg/mL

1495_C14 (PGC14) (antibody)
neutralization IC50 [1]: 28.6 µg/mL
IC50 (µg/ml), pseudovirus neutralization [2]: > 50 µg/mL
neutralization IC50 [2]: > 50 µg/mL
neutralization IC50 [3]: > 50 µg/mL
IC50 [4]: 19 µg/mL
IC50 [5]: > 50 µg/mL
neutralization IC50 [6]: > 50 µg/mL
IC50 [7]: > 50 µg/mL
neutralization IC50 (HIV-1 APV-6 Env (HIV-1)): 7.41 µg/mL
IC50 (µg/ml), pseudovirus neutralization (HIV-1 CMU02 Env (HIV-1)): > 50 µg/mL
neutralization IC50 (HIV-1 CMU02 Env (HIV-1)): > 50 µg/mL
neutralization IC50 [8]: > 50 µg/mL
IC50 [9]: 15 µg/mL
IC50 [10]: 12 µg/mL
IC50 (µg/ml), pseudovirus neutralization [11]: > 50 µg/mL
IC50 (µg/ml), pseudovirus neutralization [12]: > 50 µg/mL
IC50 (µg/ml), pseudovirus neutralization [13]: > 50 µg/mL
IC50 (µg/ml), pseudovirus neutralization [14]: > 50 µg/mL
IC50 (µg/ml), pseudovirus neutralization [15]: > 50 µg/mL
IC50 (µg/ml), pseudovirus neutralization [16]: > 50 µg/mL
IC50 (µg/ml), pseudovirus neutralization [17]: > 50 µg/mL
IC50 [18]: > 50 µg/mL
IC50 [19]: > 50 µg/mL
IC50 [20]: > 50 µg/mL
IC50 [21]: > 50 µg/mL
IC50 [22]: > 50 µg/mL
IC50 [23]: > 50 µg/mL
IC50 [24]: > 50 µg/mL
IC50 [25]: > 50 µg/mL
IC50 [26]: > 50 µg/mL
IC50 [27]: 27 µg/mL
IC50 [28]: > 50 µg/mL
IC50 [29]: > 50 µg/mL
IC50 [30]: > 50 µg/mL
IC50 [31]: > 50 µg/mL
IC50 (µg/ml), pseudovirus neutralization [32]: > 50 µg/mL
IC50 (µg/ml), pseudovirus neutralization [33]: > 50 µg/mL
IC50 (µg/ml), pseudovirus neutralization [34]: > 50 µg/mL
IC50 (µg/ml), pseudovirus neutralization [35]: > 50 µg/mL
IC50 (µg/ml), pseudovirus neutralization [36]: > 50 µg/mL
IC50 (pseudovirus neutralization) [37]: > 50 µg/mL
IC50 (pseudovirus neutralization) [38]: > 50 µg/mL
IC50 (pseudovirus neutralization) [39]: > 50 µg/mL
IC50 (pseudovirus neutralization) [40]: > 50 µg/mL
IC50 (pseudovirus neutralization) [41]: 46 µg/mL
IC50 (pseudovirus neutralization) [42]: > 50 µg/mL
IC50 (µg/ml), pseudovirus neutralization [43]: > 50 µg/mL
IC50 (µg/ml), pseudovirus neutralization [44]: > 50 µg/mL
IC50 (µg/ml), pseudovirus neutralization [45]: > 50 µg/mL
IC50 [46]: > 50 µg/mL
IC50 [47]: < 0.0025 µg/mL
IC50 [48]: > 50 µg/mL
